{"source": "ChEMBL document CHEMBL4052696", "about": "“Varic acid analogues from fungus as PTP1B inhibitors: Biological evaluation and structure-activity relationships” (Bioorg Med Chem Lett, 2017)", "proteins": {"B1": {"name": "Tyrosine-protein phosphatase non-receptor type 1 (Homo sapiens), P18031 (protein)", "chain": "MEMEKEFEQIDKSGSWAAIYQDIRHEASDFPCRVAKLPKNKNRNRYRDVSPFDHSRIKLHQEDNDYINASLIKMEEAQRSYILTQGPLPNTCGHFWEMVWEQKSRGVVMLNRVMEKGSLKCAQYWPQKEEKEMIFEDTNLKLTLISEDIKSYYTVRQLELENLTTQETREILHFHYTTWPDFGVPESPASFLNFLFKVRESGSLSPEHGPVVVHCSAGIGRSGTFCLADTCLLLMDKRKDPSSVDIKKVLLEMRKFRMGLIQTADQLRFSYLAVIEGAKFIMGDSSVQDQWKELSHEDLEPPPEHIPPPPRPPKRILEPHNGKCREFFPNHQWVKEETQEDKDCPIKEEKGSPLNAAPYGIESMSQDTEVRSRVVGGSLRGAQAASPAKGEPSLPEKDEDHALSYWKPFLVNMCVATVLTAGAYLCYRFLFNSNT"}}, "settings_in_all_cases": "Homo sapiens", "key": {"[1]": {"compound": "CCCc1cc(OC(=O)c2c(O)cc(OC(=O)c3c(O)cc(O)cc3CCC)cc2CCC)cc(O)c1C(=O)O", "test": "Competitive inhibition of PTP1B (unknown origin) assessed as Km(app) for substrate at 0.4 uM using p-nitrophenyl phosphate substrate incubated for 30 mins by Lineweaver-Burk double reciprocal plot (reference value: 1.43 mM)"}, "[2]": {"compound": "CCCc1cc(OC(=O)c2c(O)cc(OC(=O)c3c(O)cc(O)cc3CCC)cc2CCC)cc(O)c1C(=O)O", "test": "Competitive inhibition of PTP1B (unknown origin) assessed as Km(app) for substrate at 0.25 uM using p-nitrophenyl phosphate substrate incubated for 30 mins by Lineweaver-Burk double reciprocal plot (reference value: 1.43 mM)"}, "[3]": {"compound": "CCCc1cc(OC(=O)c2c(O)cc(OC(=O)c3c(O)cc(O)cc3CCC)cc2CCC)cc(O)c1C(=O)O", "test": "Competitive inhibition of PTP1B (unknown origin) assessed as Km(app) for substrate at 0.1 uM using p-nitrophenyl phosphate substrate incubated for 30 mins by Lineweaver-Burk double reciprocal plot (reference value: 1.43 mM)"}}}
{"protein": "B1", "values": [{"measurement": "Km", "setting": "[1]", "result": 91, "unit": "mM"}, {"measurement": "Km", "setting": "[2]", "result": 44, "unit": "mM"}, {"measurement": "Km", "setting": "[3]", "result": 12, "unit": "mM"}]}
